Tested on: TRF2DBD+L
Test: differential centrifugation
Details: self-association; agarose gel binding detected at 10-fold lower concentration; EMSA buffer composition not in the material (AFM incubations: without Mg2+ and KCl, 30 min, room temperature); strand insertion assay: 50 mM HEPES, 100 mM …

pRST5 2 kb telomeric fragment, histone-free (Tel DNA)
binding signal (% sedimented at up to 1 uM): 20

Reference: article PMC3079743
